How the values were obtained:
cathepsin B = cathepsin B (Homo sapiens, UniProt P07858); assay: Cathepsin B mediated rhodamine release; format: biochemical; conditions: 150 nM, 0.3 unit activated cathepsin B, pH 5.5, 37° C., FIG. 21
Procedure: CTSB was activated by incubation at ambient temperature for 15 min with 30 mM dithiothreitol and 15 mM EDTA at PH5.5.
Reaction buffer preparation: 25 mM sodium acetate & 1 mM EDTA, PH5.5.
Adding 150 nM NAcCys-13 & NAcCys-14 & NAcCys-15 & NAcCys-16 & NAcCys-17 and 0.3 unit activated cathepsin B mixture according to the experiment template.
The reaction mixtures were incubated at 37° C. immediately in the reader, then start reading using the kinetic set-up described. (TECAN SPARK: excitation/emission: 485/520 nm) (120 cycles, every one min) Gain Manual: 77%
Data analysis by GraphPad Prism 9 is illustrated in FIG. 21.

A375 = assay: Compounds cellular killing (Cell Titer-Glo, 6 days, 2D); format: cell-based, human; conditions: Homo sapiens, A-375, Table 28, payload, A375, 2D (Her3 ++)
Procedure: (§1) The cell line was grown in a humidified 5% CO2 atmosphere at 37° C., and was regularly tested for the presence of mycoplasma with MycoAlert™ PLUS Mycoplasma Detection Kit (Lonza, LT07-710).
(§2) Incubation at 37° C., 5% CO2, overnight.
(§3) Adding the fresh growth-medium containing the varying concentrations of compounds, 50 ul/well.
(§4) Incubation at 37° C., 5% CO2, 6 days.
(§5) The cell viability detected by Cell Titer-Glo (Promega, G7573). Add 70 µL/well of CellTiter-Glo® Reagent in each well.
(§6) Allow the plates to incubate at room temperature for 10 minutes to stabilize luminescent signal.
(§7) Analyze with Microplate Reader.

Calu-6 = assay: as above; format: cell-based; conditions: Homo sapiens, Calu-6, 2D (HER3 neg.)
Procedure: as §1, §2, §3, §4, §5, §6, §7

HCC1569 = assay: Payload cellular killing, 2D; format: cell-based; conditions: Homo sapiens, Table 28, payload, HCC1569, 2D (HER3 +++)
MDA-MB-453 = assay: Payload cellular killing, 2D; format: cell-based, human; conditions: Homo sapiens, Table 28, payload, MDA-MB-453, 2D (HER3 +++)
Procedure: as §1

Ovcar3 (PTK7 high) = assay: Cellular killing on PTK7 cell lines (Cell-Titer-Glo, 7 days); format: cell-based; conditions: Anti-proliferation
Procedure: (§8) The plates were incubated for 7 days at 37° C., 5% CO2. Next, 50 μL of Cell-Titer-Glo reagent was added to each well. The mixture was mixed on an orbital shaker for 10 mins to allow cell lysis. Then, the luminescent signal was measured using BMG PheraStar with the luminescent protocol. The inhibition of Ovcar3 and A549 cell lines is illustrated in FIG. 22 and FIG. 23, respectively.

A549 (PTK7 low) = assay: as above; format: cell-based; conditions: Anti-proliferation
Procedure: as §8

[1] = ADC hydrophobicity evaluation by HIC (retention time of DAR8 species); format: physicochemical; conditions: HIC method with isopropanol in the mobile phase (values marked *, Method 1)
Text: ADC Hydrophobicity Evaluation
ADC with more hydrophobic property would appeared with later retention time from HIC (hydrophobicity interaction column) chromatography. In this invention, […].
The HIC retention time (HIC RT, here only HIC RT of DAR8 species is listed in the table) can be seen as a measure to evaluate ADC's hydrophobicity.

Molecule | Emax (Ovcar3 (PTK7 high)) | IC50 (Ovcar3 (PTK7 high)) | Emax (A549 (PTK7 low)) | IC50 (A549 (PTK7 low)) | HIC DAR8 RT [1] | other results
CCOC(=O)Nc1ccc2c(c1)Oc1cc(NC(=O)OCc3ccc(NC(=O)[C@H](CCCNC(N)=O)NC(=O)[C@@H](NC(=O)[C@H](CS(=O)(=O)O)NC(=O)CCOCCOCCOCCN4C(=O)CC(SC[C@H](NC(C)=O)C(=O)O)C4=O)C(C)C)cc3)ccc1C21OC(=O)c2ccccc21 (stereo partly shown) [NAcCys-15] | – | – | – | – | – | cathepsin B mediated rhodamine release rate, rank (cathepsin B): NAcCys-15˜NAcCys-13 (benchmark)>NAcCys-14>NAcCys-17
CCc1c2c(nc3ccc(O)cc13)-c1cc3c(c(=O)n1C2)COC(=O)[C@]3(O)CC [SN-38, reference compound] | – | – | – | – | – | EC50 (A375): 3.4 nM; Emax (A375; read-out: Emax): 99.9%; EC50 (Calu-6; Calu-6, Table 28, payload): 2.9 nM; Emax (Calu-6; Table 28, payload, read-out: Emax): 99.5%; EC50 (HCC1569): 5 nM; Emax (HCC1569; read-out: Emax): 95%; EC50 (MDA-MB-453): 2.4 nM; Emax (MDA-MB-453; read-out: Emax): 98.6%
ADC1-4: antibody: Cofetuzumab (conjugate, chains of the INN, looked up, drug conjugate, antibody: Cofetuzumab) VH: QVQLVQSGPEVKKPGASVKVSCKASGYTFTDYAVHWVRQAPGKRLEWIGVISTYNDYTYNNQDFKGRVTMTRDTSASTAYMELSRLRSEDTAVYYCARGNSYFYALDYWGQGTSVTVSS VL: EIVLTQSPATLSLSPGERATLSCRASESVDSYGKSFMHWYQQKPGQAPRLLIYRASNLESGIPARFSGSGSGTDFTLTISSLEPEDFAVYYCQQSNEDPWTFGGGTKLEIK | 93.45% | 0.32 nM | 20.12% | > 200 nM | 14.50* min | –
ADC1-11: antibody: Cofetuzumab (conjugate, chains of the INN, looked up, drug conjugate, antibody: Cofetuzumab) VH: QVQLVQSGPEVKKPGASVKVSCKASGYTFTDYAVHWVRQAPGKRLEWIGVISTYNDYTYNNQDFKGRVTMTRDTSASTAYMELSRLRSEDTAVYYCARGNSYFYALDYWGQGTSVTVSS VL: EIVLTQSPATLSLSPGERATLSCRASESVDSYGKSFMHWYQQKPGQAPRLLIYRASNLESGIPARFSGSGSGTDFTLTISSLEPEDFAVYYCQQSNEDPWTFGGGTKLEIK | 100.9% | 2.1 nM | 26.44% | > 200 nM | 14.77* min | –
ADC1-2: antibody: Cofetuzumab (conjugate, chains of the INN, looked up, drug conjugate, antibody: Cofetuzumab) VH: QVQLVQSGPEVKKPGASVKVSCKASGYTFTDYAVHWVRQAPGKRLEWIGVISTYNDYTYNNQDFKGRVTMTRDTSASTAYMELSRLRSEDTAVYYCARGNSYFYALDYWGQGTSVTVSS VL: EIVLTQSPATLSLSPGERATLSCRASESVDSYGKSFMHWYQQKPGQAPRLLIYRASNLESGIPARFSGSGSGTDFTLTISSLEPEDFAVYYCQQSNEDPWTFGGGTKLEIK | 93.47% | 0.23 nM | 34.22% | > 200 nM | 14.67* min | –
ADC1-12: antibody: Cofetuzumab; "ADC Compounds used references" (conjugate, chains of the INN, looked up, drug conjugate) VH: QVQLVQSGPEVKKPGASVKVSCKASGYTFTDYAVHWVRQAPGKRLEWIGVISTYNDYTYNNQDFKGRVTMTRDTSASTAYMELSRLRSEDTAVYYCARGNSYFYALDYWGQGTSVTVSS VL: EIVLTQSPATLSLSPGERATLSCRASESVDSYGKSFMHWYQQKPGQAPRLLIYRASNLESGIPARFSGSGSGTDFTLTISSLEPEDFAVYYCQQSNEDPWTFGGGTKLEIK | 86.04% | 39.4 nM | 5.76% | > 200 nM | 13.98* min | –
ADC1-1: antibody: Cofetuzumab; "ADC Compounds used references" (conjugate, chains of the INN, looked up, drug conjugate) VH: QVQLVQSGPEVKKPGASVKVSCKASGYTFTDYAVHWVRQAPGKRLEWIGVISTYNDYTYNNQDFKGRVTMTRDTSASTAYMELSRLRSEDTAVYYCARGNSYFYALDYWGQGTSVTVSS VL: EIVLTQSPATLSLSPGERATLSCRASESVDSYGKSFMHWYQQKPGQAPRLLIYRASNLESGIPARFSGSGSGTDFTLTISSLEPEDFAVYYCQQSNEDPWTFGGGTKLEIK | 95.76% | 0.31 nM | 38.87% | > 200 nM | 14.56* min | –

Source: US20250135026A1, “Antibody Drug Conjugates” (BeiGene Switzerland GmbH, priority 2021, published 2025)
